Results on 13 sequences are retold here after the DeepSol protein solubility set.

A short description of this data set: soluble on expression in E. coli; label from the status in PepcDB or PDB records.
Consider “MIAEAAAVEVQANEAPVVAPIMYKVESNDGKVFEISDEAVKQSNILSNLISTCAPEDVASMDPIPITNVTGNILKMVIEWCEKHKGEALPVEDDSVPKNINVPEWDTNFLKIDNEVLFDLIVACNYLDVPGLMNYGCKMVANMAIGKSPDELRIIFAIPTDEEDEAAERAAKEKAEAEKKAIADKDAAEPSTSK”, for which the “soluble on expression in E. coli” value was “soluble”. With “SNARGLGSELKDSIPVAELSASGPFESHDLLRKGFSCVKNELLPSHPLELSEKNFQLNQDKMNFSTLRNIQGLFAPLKLQMEFKAVQQVHRLPFLPSSNLSLDILRGNDETIGFEDILNDPSQSELMGEPHVMVEHKLGLL” the entry was “soluble”; with “MSLRTYLPGESEEVLSEGWTLTLTPADACETPSDIPASLESLHVSVPGTVGQALEAAGKFDRLAPVALNDRDAWYRLTMISDARERAILRFDGLSTIAEIFFNGELIAASQSMFERLEVPVQMTGADELSICFRALAPRLEKPGPRARWRPQMMNTQGLRLIRTTALGYMPGWCPEIHSAGPWRPISLIKQDGVLCTLRSSLDDTGTGKVSIVLQANRDIQSARLICAGYSINLSKAEDGKLLGELIIPGVEIWWPHTHGRPALHEVVLELDGNQHRLGRTGFRQVEIDHGEDGNGFGLKVNGQPVFCRGAVWTTADIVRLPGTRPDYEPWLKKAAEAGMNMIRVGGTMAYETPEFFALCDELGIMVWQDAMLANFDYPAKDDGLRQHIVMEIEQLLESTALSPSFAIFCGGSEMYQQGAMLGLPEQIWKGTLTEEILPELVAEKRPDAAYVANSPSGGALPFFPNAGVGHYYGVGAYCRPLEDARRADLRFAAECLAFANIPEQETLDRYLPGVAVHDPRWKARTPRDRGASWDFEDVRDHYLKLLYEAEPDVLRREDGALYLDMSRAATAEVMEATFAEWRRSGSSCQGALVWTLQDLVPGAGWGIIDAAGRPKSVWHALKRAFRPVQVSLSDEGTNGLDIHILNDTGDSLNTMLELTCLREGLQPVVHAKRPLALLPRESQTIAATDLFGAFFDTTYAYRFGPPSHDVTIARLRDIATGHVIADAFHFPLGRKKALHAANLQVAISETNGHWSLEIGTDRLAQSVHITAEGYRACESWFHLGPGEARKIGLLPETATTEAPPSGEVVSLGSSRRFSEGHHHHHH”, “not soluble”.

As to “MSLEPIGNVIKKIVKERNLGSKEDILNQVLQDPDINAFLQANKAKIDQKMIKNSMSGLYEFYSQKRNPSKVMAGYAPQLFLNGKVIDVRYAPTQAKVAQDRKRAAKKRLHLIDLPGRLHDVELSKIDITDDRNQVLTLIYDFLNKYSKDSHQQGLYLSGDFGVGKTYILAGLANYVVTNMEKDVVFLHVPTFIAGLASHFGDNSLQDEIRRLSECDLLILDDIGAETLSQWSRDDVLGVILQARMDNVLPTFFSSNLDMEALESHFEETRNATDPVKARRLMQRIRFLAKEVVVSGPDRRNSLREGHHHHHH”, the “soluble on expression in E. coli” value is on record as “soluble”. With “RCFRLEQTQKDARVVSVHAAMSGRSTIGEQQGHSISWRRRLSRANTWPSAAKAQAYITNVATPALTQVAEELCRKGINARLVTTKTQAVEGLDLIVEMGSEQNFRYQLFPVCNPVPQFTRKANASEKETYYRLEVCDLTGSLGYDIYGYTQEQLIDNVLDLYERHLEFLHMHSDLPGSSDLSDGATPPLFS” the entry was “not soluble”. As for “AVSSATLEMESQRDEVAGLVRLGLSQSFGTLHIIPAIQELRELYPQLQVEVHLFDYKVDMLAEGLDLWVTNNEHLPEGYIAQRLTDCQFVVAASPDYLLKYDTPTEPNDLSLHNCLIYRSWERDYTGWAFTKGQQELNVKVSGNYSVDLAEAVRDAAIAGWGIAYLATYLLGDEFRTGKLIQLLPDWKASQSMPFYAVYPSRQHMPKKISAVINFIKQKIGNPCHWDQRLAPYISIPK”, the “soluble on expression in E. coli” value is “not soluble”. The result for “MSLTYEKLYELRQTLRPTTKDGLYTDNEKNREILTVRWSGNTENPKNFSAVAIGINPSKANDERSDKTLTQLARFLDMYGFTNFKMLNIFSSYSTQQTGIRANTQTDFSKFKGCLEDADMIILAWGTDRGAYKDEKNRILEFLKAEKFMEKVFCISETGNSSDTRHPSRISYSYQLVQFEESAEGGSHHHHHH” reads “soluble”. On to “MDPLLTVLKERMRACQRRVSDRPRRQVVAIEWIDPPMASGNWIPELIALAGGENMLGTAGKHSPYIEWSTLLAIDPEVILVMPCGFDLERTRQELDQALQTYPQWQQLRALQTGQLYILDGNAYFNRPGPRLVDSLEILVEILHPCPEPKFHGVGWRPYVGPSMAKMSDEGLEHHHHHH”, for which the “soluble on expression in E. coli” value was “not soluble”. The result for “MSLRSTAVLALLLCAGQVFALPVNSPMTKGDTKVMKCVLEVISDSLSKPSPMPVSPECLETLQGDERILSILRHQNLLKELQDLALQGAKERAQQQQEQQHSSFEDELSEVFENQSPDAKHRDAAAEVPSRDTMEKRKDSDKGQQDGFEATTEGPRPQAFPEPNEGHHHHHH” reads “soluble”; that for “MSRPKAIVRHGKRDTIVALLGWAGAVDRNVEKYAGIYQKKGYTTVQFTALAAVKGWGTKDGRNVDHLASTLDSVLINPSNRLVFHVFSMNGFIALTSLDSQFPELKAIEKCDGIFMDSCPACFSFSIENMQKHALVMNHVYDQLIKNSNFVLGNFYKVYKKWETARFGYQMIMDTMSIKAGLCTIEEANPFFYLLNHPHLPPILTSIFSDNDIVCSADEINLFNECAAKKSDKKRQIMATRLKDTAHVEHFRKYPKLYLEKMDEFLQKVEKLRNGGNSKL”, “not soluble”; that for “MGSDKIHHHHHHMAWLLVGTKKYEDFEKNERVNRWYLNVRARSPISADIWRRSLLRYCTINNTTPEGLLDMAQKGTLKDNFQDFTIRMIAEGRRGAYLAKVKEILHSWIRFNDIDYKIRINIPNERLNETTMDERVPTKEELSKILRMGTVRSRVSVSLMAFSGLRPEVLGNYEGTDGLTLGDIEDLDIDTLTFKNVPAKINVRNGLSKTRLKYFTFLGQEGCGYLKDYLDHRKASGEILKKESALLAPDPGNVQTAHGFLRTALIAREIRKAIRNSNLSMRPYVLRVYFATALDIAESKGSISHPWRQYIMGHKGDIEATYSTNKRLLPETIEGMRSAYLKCTKFFETEEKGIKEEDYQKMLRDSAIDTLTGAFGITLTDDQKEELRNLDTAEYQKRLGEIFKDRKADLLNNGNSQKVIPFKDVEKYIEQGWEYVRDFPGNKAIVRLPS”, “not soluble”. The result for “ANMPPGSVEQVAAKVVPSVVMLETDLGRQSEEGSGIILSAEGLILTNNHVIAAAAKPPLGSPPPKTTVTFSDGRTAPFTVVGADPTSDIAVVRVQGVSGLTPISLGSSSDLRVGQPVLAIGSPLGLEGTVTTGIVSALNRPVSTTGEAGNQNTVLDAIQTDAAINPGNSGGALVNMNAQLVGVNSAIATLGADSADAQSGSIGLGFAIPVDQAKRIADELISTGKASHASLGVQVTNDKDTLGAKIVEVVAGGAAANAGVPKGVVVTKVDDRPINSADALVAAVRSKAPGATVALTFQDPSGGSRTVQVTLGKAEQLEHHHHHH” reads “soluble”; that for “MSVNVRPVKRFVEEQKKKNPEIKLSEKATQLLTDMPKMDSPEKLFNLEDKIATEMGSDRIFEEFLQDYAFLRNAVEEYLDGKPTSSDTISKIARLRRNTRLTHYGTALMRKEVAERMENVDAKLLQLQNVTSEVQHIQKEIDRCLDFSAGDEELELVPFEQFHTEASEILANETADNEHEQYLARLKFENEQRRELLSTLNELEGRRNVLQSDIRGKEVRLQGLKPKLEDLTKVAEPVFEMVGAKFKDLSIEGEQRKLSLQLPAPLAVAHIHAAAYKEIHDGEYSKILRNFLYKYKLFEFRILGTNDTEKQSKDETEAMKRKRKEDETTQEKINKMASELLEVHPMSLEFEIECSENIKISMQIQYLTELKVTTAKWHINTDSKLKKSPFFSIDSLMSDLFENDTGDKCPNDVGEMKIEHLKMNFNSSAKQIGKPFKFIQEISGSEGETDRIGATEHLRKVITTIRTRISNRAVLDGIIRDLESKKTDDLNLEPEVKINSFKICDDESFIASIPTSLTKKISNSAATDRFSYKIEASDGNGRKLTAYISIPADYPRHTALFGIAAPEDSESSTEVARQIEDRLNTEAHYVDDVKSIKEQLSLLLKHIDLS”, “not soluble”.
